Measurements from patent US20080119384A1 (Janssen / Centocor, published 2008).
Non-standard residues stand in square brackets, D forms with d. No end group written: not given here. MPEG = methoxypoly(ethylene glycol), ~20,000 Da; 2Nal = N[C@@H](Cc1ccc2ccccc2c1)C(=O)O; Sar = CNCC(=O)O

Biological target: T1, human TPO receptor, c-mpl (hTPOr) (human, UniProt P40238 26-635)
T1 sequence (looked up): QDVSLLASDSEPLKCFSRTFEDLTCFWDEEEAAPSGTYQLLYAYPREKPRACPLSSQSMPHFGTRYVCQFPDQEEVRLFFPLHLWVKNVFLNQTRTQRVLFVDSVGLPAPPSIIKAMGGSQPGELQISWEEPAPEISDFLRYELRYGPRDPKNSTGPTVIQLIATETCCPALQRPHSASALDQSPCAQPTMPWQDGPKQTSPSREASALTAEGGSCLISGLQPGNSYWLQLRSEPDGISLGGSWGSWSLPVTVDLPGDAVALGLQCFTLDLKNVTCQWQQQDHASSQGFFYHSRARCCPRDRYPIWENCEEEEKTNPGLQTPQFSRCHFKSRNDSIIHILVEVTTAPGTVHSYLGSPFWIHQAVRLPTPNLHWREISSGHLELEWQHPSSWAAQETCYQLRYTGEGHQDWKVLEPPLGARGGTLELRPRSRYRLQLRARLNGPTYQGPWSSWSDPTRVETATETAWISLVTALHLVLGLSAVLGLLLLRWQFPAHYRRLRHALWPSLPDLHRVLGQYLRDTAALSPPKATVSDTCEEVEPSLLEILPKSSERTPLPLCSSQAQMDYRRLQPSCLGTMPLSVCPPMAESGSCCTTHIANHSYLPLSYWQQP
Experiment: cell-based or functional assay

B1: PEGylated TPO Compound No. 1 (peptide)
peptide: {MPEG}-IEGPTLRQ[2Nal]LAAR[Sar]K[Sar]RAAL[2Nal]QRLTPGEI
modifications: not fully specified (C-terminus); printed as (MPEG-Ile-Glu-Gly-Pro-Thr-Leu-Arg-Gln-(2-Nal)-Leu-Ala-Ala-Arg-(Sar))2-Lys-NH2; also: branched dimer: two 14-mers joined at their C-termini to Lys alpha and epsilon amines, residues 16-29 written C→N, Ile29 is the second N-terminus bearing MPEG, Lys C-terminal amide (lysinamide)
EC50, luciferase reporter (fos promoter) in Baf/3 cells expressing human TPO-R: ~5 pM
